{"source": "paper PMC4066782", "about": "“The telomerase inhibitor Gno1p/PINX1 activates the helicase Prp43p during ribosome biogenesis” (Nucleic Acids Research, 2014)", "binders": {"B1": {"name": "GST-PINX1-HIS (natural protein, human, UniProt Q96BK5 1-328, looked up)", "chain": "MSMLAERRRKQKWAVDPQNTAWSNDDSKFGQRMLEKMGWSKGKGLGAQEQGATDHIKVQVKNNHLGLGATINNEDNWIAHQDDFNQLLAELNTCHGQETTDSSDKKEKKSFSLEEKSKISKNRVHYMKFTKGKDLSSRSKTDLDCIFGKRQSKKTPEGDASPSTPEENETTTTSAFTIQEYFAKRMAALKNKPQVPVPGSDISETQVERKRGKKRNKEATGKDVESYLQPKAKRHTEGKPERAEAQERVAKKKSAPAEEQLRGPCWDQSSKASAQDAGDHVQPPEGRDFTLKPKKRRGKKKLQKPVEIAEDATLEETLVKKKKKKDSK"}}, "molecular_target": "Prp43p-HIS (S. cerevisiae, UniProt P53131 1-767)", "sequence (P53131 whole entry)": "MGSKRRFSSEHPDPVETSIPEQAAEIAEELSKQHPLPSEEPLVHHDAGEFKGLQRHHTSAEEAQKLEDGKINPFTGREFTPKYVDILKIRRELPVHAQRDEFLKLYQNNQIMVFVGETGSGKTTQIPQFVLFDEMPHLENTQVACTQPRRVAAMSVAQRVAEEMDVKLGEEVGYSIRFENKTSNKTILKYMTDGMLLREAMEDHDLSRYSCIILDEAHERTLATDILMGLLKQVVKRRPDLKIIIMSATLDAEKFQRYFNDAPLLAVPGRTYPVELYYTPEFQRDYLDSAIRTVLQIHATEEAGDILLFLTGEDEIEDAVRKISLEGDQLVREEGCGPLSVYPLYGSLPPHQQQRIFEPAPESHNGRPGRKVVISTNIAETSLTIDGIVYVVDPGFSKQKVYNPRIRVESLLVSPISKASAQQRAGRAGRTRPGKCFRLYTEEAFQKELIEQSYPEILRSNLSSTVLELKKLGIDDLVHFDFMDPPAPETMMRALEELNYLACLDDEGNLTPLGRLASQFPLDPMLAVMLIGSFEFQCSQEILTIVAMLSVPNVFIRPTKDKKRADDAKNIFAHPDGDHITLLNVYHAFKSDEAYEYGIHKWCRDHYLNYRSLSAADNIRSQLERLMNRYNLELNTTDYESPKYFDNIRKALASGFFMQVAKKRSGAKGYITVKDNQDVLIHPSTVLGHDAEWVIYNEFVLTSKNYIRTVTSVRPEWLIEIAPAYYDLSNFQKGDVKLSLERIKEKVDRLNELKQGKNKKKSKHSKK", "assay": "cell-based or functional assay"}
{"binder": "B1", "values": [{"measurement": "ATP hydrolysed by Prp43p-HIS after 60 min of incubation, with GST-PINX1-HIS against without (0.1 μM proteins, 100 μM ATP, 30°C)", "value": 9, "unit": "fold"}]}
